This is an account of results in US20160334414A1 (BAXALTA, published 2016).

Broadly, the IC50 is the concentration needed to halve the response being measured. Low readings indicate greater potency in that assay, high ones weaker potency in that assay.

The chains are these.
B2: anti-oxMIF antibody RAM9 (antibody, V domains shown)
VH: EVQLLESGGGLVQPGGSLRLSCAASGFTFSIYSMNWVRQAPGKGLEWVSSIGSSGGTTYYADSVKGRFTISRDNSKNTLYLQMNSLRAEDTAVYYCAGSQWLYGMDVWGQGTTVTVSS
VL: DIQMTQSPSSLSASVGDRVTITCRSSQRIMTYLNWYQQKPGKAPKLLIFVASHSQSGVPSRFRGSGSETDFTLTISGLQPEDSATYYCQQSFWTPLTFGGGTKVEIKR
notes: also called biotinylated RAM9

In the test “anti-oxMIF antibody RAM9” the target is B2. As to the kind of experiment: secondary screening (neutralising) ELISA with finally purified antibody: inhibition of biotinylated RAM9 binding to coated human MIF, % recovery; the number stands in paragraph 159 without a unit, ng/ml is from the axis log c (ng/ml) of the figure. Here is the method: Microplates were coated with human MIF (10 μg/ml PBS, 100 μl/well) and blocked with 250 μl 1.5% fish gelatin in PBS. Washing steps (4×250 μl of PBS per well) were included between the incubations. The samples were serially pre-diluted (in 1% fish gelatin/PBS) to 2× final dilution and mixed with an equivalent volume of biotinylated RAM9 (30 ng/ml) (equivalent to a 1:2 dilution, final concentration of RAM9 is therefore 15 ng/ml). These mixtures were allowed to form complexes for 30 min. […] Biotinylated RAM9 captured on the plate was detected using HRP coupled Streptavidin and TMB as chromogenic substrate. The absorbance of each well was related to the absorbance of the standard curve by linear regression and is expressed in ng/ml. The concentration calculated for biotinylated RAM9 in the sample is related to the calculated concentration of biotinylated RAM9 in the negative control (% recovery=(100%/measured concentration of biotinylated RAM9 in the negative control)×measured concentration of RAM9 in the sample). Half maximal binding inhibition (IC₅₀) by anti-RAM9 antibodies is calculated by blotting log concentration of rabbit anti-RAM9 against % recovery and non-linear 4-parameter curve fit with variable slope FIG. 4a.
(In an ELISA, binding on a coated surface is turned into a signal by an enzyme label.)

The target in test [1] is T1, oxMIF in human tissue cryosections (human, UniProt P14174 2-115).
T1 construct: also called oxidized MIF
T1 sequence (P14174 2-115 limits assumed): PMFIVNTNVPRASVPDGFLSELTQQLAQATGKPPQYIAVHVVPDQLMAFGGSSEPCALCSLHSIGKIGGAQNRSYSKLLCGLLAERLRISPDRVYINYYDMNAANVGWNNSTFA
As to the kind of experiment: IHC on pancreas cryosections, 68-1 without the primary antibody RAM9. The method, then: (§1) The slides were prepared according to state of the art techniques known to experts, either fresh frozen or OCT embedded, sectioned at 10 μm and stored at <=−80° C. after sectioning. All following steps were done at ambient temperature. The cryo-sections were air dried for 30 min and unspecific binding was blocked with blocking buffer (BB: 20% Normal Goat Serum/2% Bovine Serum Albumin/0.2% Fish Gelatine in TBS) for 15 min. The sections were then incubated without primary antibody or with anti-oxMIF antibody RAM9 in primary antibody dilution buffer (PADB: 2% Bovine Serum Albumin/0.2% Fish Gelatine in TBS) at a concentration of 2 μg/ml for 60 min. After washing in TBS, the specimen was fixed in 4% PBS buffered formaldehyde for 20 min. Excess formaldehyde was removed by washing in TBS for 5-10 min, Endogenous peroxidases were blocked by incubating the tissue sections in 0.3% H₂O₂ in methanol for 20 min. Excess methanol/H₂O₂ was removed by washing in TBS for 5-10 min. Detection of was done by incubating the tissue sections with anti-idiotypic rabbit monoclonal antibodies (68-1) diluted in PADS at 1 μg/ml for 30 min. Excess detection antibody was removed by washing in TBS for 5-10 min. The staining was done using SignalStain® Boost IHC Detection Reagent Rabbit for 30 min. Then the sections were extensively washed again 10 min in TBS. […]

Test [2] deals with T1, oxMIF in human tissue cryosections. As to the kind of experiment: IHC on infiltrating ductal carcinoma of the pancreas, RAM9 detected by rabbit anti-RAM9 54-5 or 68-1. The method, then: as §1

B1: monoclonal rabbit anti-RAM9 idiotypic antibody 68-1 (antibody, V domains shown)
VH: QEQLKESGGRLVKPGGTLTLTCKASGMDFNNYYYMAWVRQAPGKGLEWIGYISGGGSPYYASWAKGRFTISRTSTTVDLKMTSLTTEDTATYFCGRYTDINNGIDLWGPGTLVTVSS
VL: DIVMTQTPSSVSEPVGGTVTINCQASENIYSNLAWYQQKPGQPPKLLIYLASSLTSGVPSRFKGSGSGTEFTLTISDLECADAAIYYCQNNYGDVRYGRNAFGGGTEVVVKG
notes: Rabbit IgG; also called anti-RAM9-68-1; Clone 68-1
On to B1, for which the IC50 with anti-oxMIF antibody RAM9 turned out to be 0.0296 µg/mL. For the same molecule, in test [1], the binding result is “no binding (tested: 1 µg/ml)”.

Take B2: the binding result in test [2] was “binds”.

B3: monoclonal rabbit anti-RAM9 idiotypic antibody 54-5 (antibody, V domains shown)
VH: QSLEESGGDLVKPGASLTLTCTASGFSFSSGYDMCWVRQAPGKGLEWIACIYDGDVRTYYASWAKGRFTISRTSSTTMTLQMTGLTAADTATYLCARGASGYLSALYLWGPGTLVTVSS
VL: DVVMTQTPASVSEPVGGTVTIKCQASFTITSNLAWYQQKPGQPPKLLIYGASNLASGVSSRFRGSGFGTEFTLTISDLECADAATYYCQCAAVLSSWTFGGGTEVVVKG
notes: Rabbit IgG; also called anti-RAM9-54-5; Clone 54-5
On to B3, for which the IC50 with anti-oxMIF antibody RAM9 was found to be 0.00596 µg/mL.
